Assay [1] deals with T1, Anti-CD28 Fab (SEQ ID NOs: 696, 697).
T1 construct: In the phage ELISA the Fab was biotinylated and captured on neutravidin coated plates
The experiment in a line: phage binding ELISA, clonal phage on biotinylated anti-CD28 Fab captured on neutravidin plates. (An ELISA detects its analyte on a solid surface through an enzyme-linked reagent.)
T1 sequence (VH, as listed by the source, chain 1 of 2): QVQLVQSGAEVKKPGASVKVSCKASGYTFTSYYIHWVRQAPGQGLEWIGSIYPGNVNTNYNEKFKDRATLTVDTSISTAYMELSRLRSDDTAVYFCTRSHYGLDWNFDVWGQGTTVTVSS
T1 sequence (VL, as listed by the source, chain 2 of 2): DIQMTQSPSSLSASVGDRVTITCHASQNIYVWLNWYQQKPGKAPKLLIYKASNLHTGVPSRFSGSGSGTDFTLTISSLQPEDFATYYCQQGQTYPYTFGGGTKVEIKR
Protocol: (§1) After panning, phage infected bacteria were plated out and colonies picked into 96 well blocks. Clonal phage was then amplified and separated from bacterial cells via centrifugation.
(§2) Clonal phage were harvested as crude supematants and screened via standard ELISAs. […] Prior to the addition of clonal phage, wells were incubated with blocking buffer and CD28 antigen or blocking buffer alone. Without washing or aspirating, clonal phage supematants were then added to the wells and incubated for a short time. Wells were then washed followed by detection of bound phage using a horse radish conjugated anti-M13 antibody. Clonal phage of interest were then sent for sequence analysis.

The target is the same in assay [2]. Put plainly: phage binding ELISA on captured anti-CD28 Fab, wells pre-incubated with CD28 antigen as competitor.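 Also: crude clonal phage supernatants added to wells preloaded with CD28 antigen, bound phage read by HRP-conjugated anti-M13 antibody, control wells got blocking buffer alone without CD28.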
Target sequence in this assay (VH, as listed by the source, chain 1 of 2): as the sequence (VH, as listed by the source, chain 1 of 2) above
Target sequence in this assay (VL, as listed by the source, chain 2 of 2): as the sequence (VL, as listed by the source, chain 2 of 2) above
Assay [3] concerns the target T2, Anti-CD28 Fab (SEQ ID NOs: 696, 697).
T2 construct: Biotinylated and captured on neutravidin coated plates in the phage ELISA
The experiment in a line: phage ELISA on plate-captured anti-CD28 Fab pre-incubated with CD28 antigen (competitor: CD28).
T2 sequence (VH, as listed by the source, chain 1 of 2): as the sequence (VH, as listed by the source, chain 1 of 2) above
T2 sequence (VL, as listed by the source, chain 2 of 2): as the sequence (VL, as listed by the source, chain 2 of 2) above
Protocol: as §1, §2

Assay [4] has the same target. The experiment in a line: phage ELISA, clonal phage on plate-captured biotinylated anti-CD28 Fab, anti-M13 HRP detection.
Target sequence in this assay (VH, as listed by the source, chain 1 of 2): as the sequence (VH, as listed by the source, chain 1 of 2) above
Target sequence in this assay (VL, as listed by the source, chain 2 of 2): as the sequence (VL, as listed by the source, chain 2 of 2) above
Protocol: as §1, §2
In assay [5] the target is T3, Anti-CD28 Fab (SEQ ID NOs: 696, 697).
T3 construct: Biotinylated and captured on neutravidin coated plates in the phage ELISA
Put plainly: phage ELISA; captured anti-CD28 Fab pre-incubated with CD28 antigen as competitor, anti-M13 HRP.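 Also: crude clonal phage supernatants added without washing after CD28 pre-incubation, bound phage detected with HRP anti-M13 antibody, reference wells got blocking buffer lacking CD28.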
T3 sequence (VH, as listed by the source, chain 1 of 2): as the sequence (VH, as listed by the source, chain 1 of 2) above
T3 sequence (VL, as listed by the source, chain 2 of 2): as the sequence (VL, as listed by the source, chain 2 of 2) above
Protocol: as §1, §2

The target is the same in assay [6]. The experiment in a line: phage ELISA; biotinylated anti-CD28 Fab on neutravidin plate, clonal phage supernatant, anti-M13 HRP.
Target sequence in this assay (VH, as listed by the source, chain 1 of 2): as the sequence (VH, as listed by the source, chain 1 of 2) above
Target sequence in this assay (VL, as listed by the source, chain 2 of 2): as the sequence (VL, as listed by the source, chain 2 of 2) above
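For Anti-CD28 Fab (SEQ ID NOs: 696, 697) signal in this document: crude clonal phage supernatants added to wells pretreated with CD28 antigen or blocking buffer only, bound phage detected by HRP-linked anti-M13 antibody.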

B1: Phage-960 (peptide)
peptide: YCDGHAQEYMVKCL
notes: tested as crude clonal phage supernatant
Consider B1, for which, in assay [1], the “Anti-CD28 Fab (SEQ ID NOs: 696, 697) signal” value came out at 1.61. The “Anti-CD28 Fab signal in the presence of CD28” value in assay [2] stood at 0.06.

B2: Phage-958 (peptide)
peptide: YCSGHLPEYMWKCL
notes: as for B1
For the molecule B2, the “Anti-CD28 Fab (SEQ ID NOs: 696, 697) signal” value in assay [1] was 1.61. In assay [2], the “Anti-CD28 Fab signal in the presence of CD28” value is 0.1.

For the molecule YCDGHSWQYMWKCI [Phage-981], the “Anti-CD28 Fab signal in the presence of CD28 (phage binding ELISA)” value in assay [3] was 0.09. The “Anti-CD28 Fab signal (phage binding ELISA)” value in assay [4] is 1.57.

Consider YCDGHAKEYIQKCL [Phage-976], for which, in assay [3], the “Anti-CD28 Fab signal in the presence of CD28 (phage binding ELISA)” value worked out at 0.06. Also, the “Anti-CD28 Fab signal (phage binding ELISA)” value in assay [4] was 1.58.

B3: Phage-964 (peptide)
peptide: YCEGHMPEYLQKCL
notes: as for B1
For the molecule B3, the “Anti-CD28 Fab (SEQ ID NOs: 696, 697) signal” value in assay [1] came out at 1.6. Further, in assay [2], the “Anti-CD28 Fab signal in the presence of CD28” value was 0.1.

As to YCAGHSPQYMEKCL [Phage-956], the “Phage binding ELISA, Anti-CD28 Fab signal in the presence of CD28” value in assay [5] was 0.06. In addition, the “Phage binding ELISA, Anti-CD28 Fab signal” value in assay [6] came to 1.61.

Consider YCDGHLLEYKAKCL [Phage-953], for which, in assay [5], the “Phage binding ELISA, Anti-CD28 Fab signal in the presence of CD28” value amounted to 0.07. In addition, the “Phage binding ELISA, Anti-CD28 Fab signal” value in assay [6] worked out at 1.62.

B4: Phage-967 (peptide)
peptide: YCAGHLDQYIEKCL
notes: as for B1
Consider B4, for which the “Anti-CD28 Fab (SEQ ID NOs: 696, 697) signal” value in assay [1] was 1.6. Moreover, the “Anti-CD28 Fab signal in the presence of CD28” value in assay [2] is 0.1.

Take YCEGHLGIYMTKCL [Phage-980]: the “Anti-CD28 Fab signal in the presence of CD28 (phage binding ELISA)” value in assay [3] was 0.08. Moreover, the “Anti-CD28 Fab signal (phage binding ELISA)” value in assay [4] came out at 1.57.

B5: Phage-961 (peptide)
peptide: YCAGHSPEYMQKCL
notes: as for B1
B5: the “Anti-CD28 Fab (SEQ ID NOs: 696, 697) signal” value in assay [1] worked out at 1.6. Further, in assay [2], the “Anti-CD28 Fab signal in the presence of CD28” value turned out to be 0.08.

In the case of YCEGHLEEYMAKCL [Phage-954], in assay [5], the “Phage binding ELISA, Anti-CD28 Fab signal in the presence of CD28” value came to 0.07. Besides, the “Phage binding ELISA, Anti-CD28 Fab signal” value in assay [6] came out at 1.62.

Consider YCDGHSPEYMLKCL [Phage-955], for which the “Phage binding ELISA, Anti-CD28 Fab signal in the presence of CD28” value in assay [5] amounted to 0.07. Also, the “Phage binding ELISA, Anti-CD28 Fab signal” value in assay [6] is 1.61.

B6: Phage-969 (peptide)
peptide: YCDGHSEAYMWKCL
notes: as for B1
On to B6, for which the “Anti-CD28 Fab (SEQ ID NOs: 696, 697) signal” value in assay [1] was found to be 1.59. Also, the “Anti-CD28 Fab signal in the presence of CD28” value in assay [2] stood at 0.07.

On to YCEGHSVEYIGKCL [Phage-971], for which the “Anti-CD28 Fab signal in the presence of CD28 (phage binding ELISA)” value in assay [3] was found to be 0.07. In assay [4], the “Anti-CD28 Fab signal (phage binding ELISA)” value was found to be 1.59.

B7: Phage-968 (peptide)
peptide: YCDGHAQEFIWKCL
notes: as for B1
For B7, the “Anti-CD28 Fab (SEQ ID NOs: 696, 697) signal” value in assay [1] is 1.6. For the same molecule, the “Anti-CD28 Fab signal in the presence of CD28” value in assay [2] came out at 0.1.

As to YCQGHADEYMAKCL [Phage-978], in assay [3], the “Anti-CD28 Fab signal in the presence of CD28 (phage binding ELISA)” value came to 0.08. In addition, in assay [4], the “Anti-CD28 Fab signal (phage binding ELISA)” value came to 1.58.

As to YCEGHSWEHMEKCL [Phage-973], the “Anti-CD28 Fab signal in the presence of CD28 (phage binding ELISA)” value in assay [3] was found to be 0.06. The “Anti-CD28 Fab signal (phage binding ELISA)” value in assay [4] is 1.58.

As to YCEGHLPQYMVKCL [Phage-977], in assay [3], the “Anti-CD28 Fab signal in the presence of CD28 (phage binding ELISA)” value stood at 0.07. Besides, in assay [4], the “Anti-CD28 Fab signal (phage binding ELISA)” value amounted to 1.58.

B8: Phage-959 (peptide)
peptide: YCDGHSVEYKLKCM
notes: as for B1
For B8, the “Anti-CD28 Fab (SEQ ID NOs: 696, 697) signal” value in assay [1] amounted to 1.61. Moreover, the “Anti-CD28 Fab signal in the presence of CD28” value in assay [2] was found to be 0.06.

B9: Phage-962 (peptide)
peptide: YCEGHLPLYMDKCL
notes: as for B1
As for B9, the “Anti-CD28 Fab (SEQ ID NOs: 696, 697) signal” value in assay [1] was found to be 1.6. Also, the “Anti-CD28 Fab signal in the presence of CD28” value in assay [2] was determined as 0.08.

B10: Phage-965 (peptide)
peptide: YCDGHELQYMAKCL
notes: as for B1
In the case of B10, the “Anti-CD28 Fab (SEQ ID NOs: 696, 697) signal” value in assay [1] was found to be 1.6. For the same molecule, the “Anti-CD28 Fab signal in the presence of CD28” value in assay [2] came out at 0.08.

Turning to YCDGHAEEYLLKCL [Phage-979], in assay [3], the “Anti-CD28 Fab signal in the presence of CD28 (phage binding ELISA)” value was 0.05. The “Anti-CD28 Fab signal (phage binding ELISA)” value in assay [4] was 1.57.

As for YCEGHSEEFMSKCL [Phage-982], in assay [3], the “Anti-CD28 Fab signal in the presence of CD28 (phage binding ELISA)” value was found to be 0.08. Besides, the “Anti-CD28 Fab signal (phage binding ELISA)” value in assay [4] came to 1.57.

B11: Phage-957 (peptide)
peptide: YCDGHSVKYMAKCL
notes: as for B1
As to B11, the “Anti-CD28 Fab (SEQ ID NOs: 696, 697) signal” value in assay [1] turned out to be 1.61. The “Anti-CD28 Fab signal in the presence of CD28” value in assay [2] stood at 0.06.

YCEGHADEYMWKCL [Phage-970]: in assay [3], the “Anti-CD28 Fab signal in the presence of CD28 (phage binding ELISA)” value amounted to 0.06. Also, in assay [4], the “Anti-CD28 Fab signal (phage binding ELISA)” value was 1.59.

In the case of YCDGHLPQYLQKCT [Phage-975], in assay [3], the “Anti-CD28 Fab signal in the presence of CD28 (phage binding ELISA)” value is 0.07. Besides, the “Anti-CD28 Fab signal (phage binding ELISA)” value in assay [4] came out at 1.58.

YCDGHRVEYMAKCL [Phage-972]: the “Anti-CD28 Fab signal in the presence of CD28 (phage binding ELISA)” value in assay [3] came out at 0.09. Also, the “Anti-CD28 Fab signal (phage binding ELISA)” value in assay [4] came to 1.58.

B12: Phage-963 (peptide)
peptide: YCEGHSAAYMQKCL
notes: as for B1
Regarding B12, the “Anti-CD28 Fab (SEQ ID NOs: 696, 697) signal” value in assay [1] turned out to be 1.6. Further, the “Anti-CD28 Fab signal in the presence of CD28” value in assay [2] was 0.09.

Regarding YCAGHSSEYIPKCL [Phage-974], the “Anti-CD28 Fab signal in the presence of CD28 (phage binding ELISA)” value in assay [3] is 0.09. Also, in assay [4], the “Anti-CD28 Fab signal (phage binding ELISA)” value is 1.58.

As to YCDGHELKYMLKCL [Phage-952], the “Phage binding ELISA, Anti-CD28 Fab signal in the presence of CD28” value in assay [5] stood at 0.08. In addition, the “Phage binding ELISA, Anti-CD28 Fab signal” value in assay [6] worked out at 1.62.

B13: Phage-966 (peptide)
peptide: YCDGHRLEYLEKCL
notes: as for B1
As for B13, in assay [1], the “Anti-CD28 Fab (SEQ ID NOs: 696, 697) signal” value is 1.6. Further, the “Anti-CD28 Fab signal in the presence of CD28” value in assay [2] turned out to be 0.06.

For the origin of these results see US20260242478A1 (published 2026).
